For experiment [1], the target named is T1, HLA-A*0201 on T2 cells without added peptide (human).
T1 construct: Background target (T2 cells with no peptide pulsed); also used as the HLA-A*02 partner of the peptide in the stabilisation read-out; also called T2 cells alone; unpulsed T2 cells
The experiment can be described thus: T2 stabilisation: surface HLA-A*02 level after pulsing with 50 µg/mL peptide, flow cytometry; the staining antibody is not named for this panel.

For experiment [2], the target named is T2, PRA435-443 (…) / HLA-A*0201 complex (human).
T2 construct: also called PRAME P435
The experiment can be described thus: flow cytometry on tumor cell lines.

The target in experiment [3] is PRA300-309 (…) / HLA-A*0201 complex (human). The experiment can be described thus: cell-based or functional assay.
Experiment [4] addresses T3, PRA300-309 (…) / HLA-A*0201 complex (human).
T3 construct: also called PRAME300; PRAME P300
The experiment can be described thus: method not stated; told in the ADCC example with PRAME+/HLA-A*02:01+ leukemia cells; lower end of the printed range 3-4 nM.

Experiment [5] addresses T3, PRA300-309 (…) / HLA-A*0201 complex. The experiment can be described thus: method not stated; told in the ADCC example with PRAME+/HLA-A*02:01+ leukemia cells; upper end of the printed range 3-4 nM.
For experiment [6], the target named is T1, HLA-A*0201 on T2 cells without added …. The experiment can be described thus: flow cytometry, Prame20 mAb on T2 cells without peptide; axis without numbers. A general note: Flow cytometry measures light scatter and fluorescence of single cells or particles in a stream.
Experiment [7] addresses T4, 009-mut3 (…) / HLA-A*0201 complex on T2 cells (human).
T4 construct: also called EXT009-mut3; Pr302A
The experiment can be described thus: flow cytometry, APC-Pr300#20 at 3 µg/ml on peptide-pulsed T2 cells; the sheet gives 324 for T2 alone and 68351 for Pr300.

Experiment [8] has as its target T5, 009-mut4 (…) / HLA-A*0201 complex on T2 cells (human).
T5 construct: also called EXT009-mut4
The experiment is described as above.

Experiment [9] addresses T6, 009-mut5 (…) / HLA-A*0201 complex on T2 cells (human).
T6 construct: also called EXT009-mut5
The experiment is described as above.

In experiment [10] the target is T7, 009-mut6 (…) / HLA-A*0201 complex on T2 cells (human).
T7 construct: also called EXT009-mut6
The experiment is described as above.

Experiment [11] addresses T8, 009-mut7 (…) / HLA-A*0201 complex on T2 cells (human).
T8 construct: also called EXT009-mut7; Pr306A
The description is as above.

Experiment [12] concerns the target T9, 009-mut8 (…) / HLA-A*0201 complex on T2 cells (human).
T9 construct: also called EXT009-mut8
The experiment is described as above.

Experiment [13] addresses T10, 009-mut9 (…) / HLA-A*0201 complex on T2 cells (human).
T10 construct: also called EXT009-mut9
Described as above.

For experiment [14], the target named is T11, 009-AAAA (…) / HLA-A*0201 complex on T2 cells (human).
T11 construct: Control peptide with alanines at positions 4-7; also called EXT009-AAAA; 009-AAAA (position 4-7)
The experiment can be described thus: phage FACS on peptide-loaded T2 cells.

Experiment [15] deals with T3, PRA300-309 (…) / HLA-A*0201 complex. The experiment can be described thus: phage FACS on peptide-loaded T2 cells.
Experiment [16] concerns the target T12, 009-mut2 (…) / HLA-A*0201 complex on T2 cells (human).
T12 construct: also called EXT009-mut2
The experiment can be described thus: phage FACS on peptide-loaded T2 cells.

For experiment [17], the target named is T4, 009-mut3 (…) / HLA-A*0201 complex on T2 …. The experiment can be described thus: phage FACS on peptide-loaded T2 cells.
The target of experiment [18] is T5, 009-mut4 (…) / HLA-A*0201 complex on T2 …. The experiment can be described thus: phage FACS on peptide-loaded T2 cells.
For experiment [19], the target named is T6, 009-mut5 (…) / HLA-A*0201 complex on T2 …. The experiment can be described thus: phage FACS on peptide-loaded T2 cells.
For experiment [20], the target named is T7, 009-mut6 (…) / HLA-A*0201 complex on T2 …. The experiment can be described thus: phage FACS on peptide-loaded T2 cells.
For experiment [21], the target named is T8, 009-mut7 (…) / HLA-A*0201 complex on T2 …. The experiment can be described thus: phage FACS on peptide-loaded T2 cells.
Experiment [22] addresses T9, 009-mut8 (…) / HLA-A*0201 complex on T2 …. The experiment can be described thus: phage FACS on peptide-loaded T2 cells.
Experiment [23] concerns the target T10, 009-mut9 (…) / HLA-A*0201 complex on T2 …. The experiment can be described thus: phage FACS on peptide-loaded T2 cells.
Experiment [24] addresses T13, 009-mut10 (…) / HLA-A*0201 complex on T2 cells (human).
T13 construct: Alanine variant at peptide position 10
The experiment can be described thus: phage FACS on peptide-loaded T2 cells.

In experiment [25] the target is T11, 009-AAAA (…) / HLA-A*0201 complex on T2 …. The experiment can be described thus: phage FACS on peptide-loaded T2 cells. This is another data set of the same source.
The target of experiment [26] is T1, HLA-A*0201 on T2 cells without added …. The experiment can be described thus: phage FACS on T2 cells without peptide.

These results are taken from US20180148503A1 (Memorial Sloan Kettering, published 2018).

For orientation: Kd means a measure of binding affinity in units of concentration. The low end stands for tighter binding, the high end for weaker binding.

B1: PRA300-309 peptide (ALYVDSLFFL) (peptide)
peptide: ALYVDSLFFL
notes: also called pr300 peptide; PRAME300 peptide
In the case of B1, the binding result in experiment [1] is “binds”.

B2: Pr435#12 antibody (antibody, V domains shown)
VH: EVQLVESGAEVKKPGSSVKVSCKASGGTFSSYAISWVRQAPGQGLEWMGRIIPILGIANYAQKFQGRVTITADKSTSTAYMELSSLRSEDTAVYYCARQGYVWSEMDFWGQGTLVTVSS
VL: LLPVLTQPPSVSVAPGKTARITCGGNNIGSKSVHWYQQKPGQAPVLVIYYDSDRPSGIPERFSGSNSGNTATLTISRVEAGDEADYYCQVWDSITDHYVFGTGTKVTVLG
notes: also called Pr4350#12
For B2, the binding result in experiment [2] is on record as “binds”.

B3: Pr300#20-MAGE (antibody, V domains shown)
VH: QVQLVQSGAEVRKPGASVKVSCKASGGTFSSYAISWVRQAPGQGLEWMGRIIPILGIANYAQKFQGRVTITADKSTSTAYMELSSLRSEDTAVYYCARHYGQWWDYWGQGTLVTVSS
VL: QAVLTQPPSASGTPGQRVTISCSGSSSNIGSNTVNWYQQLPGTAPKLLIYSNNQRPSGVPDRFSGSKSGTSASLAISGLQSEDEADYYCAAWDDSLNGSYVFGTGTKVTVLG
modifications: modified afucosylated Fc
notes: also called Pr#20-Fc enhanced; Pr20M
Regarding B3, in experiment [3], the “EC50 (ADCC, 51Cr release, human PBMC effectors, E:T 50:1)” value lay in the range of 2 to 3 nM. Besides, the Kd was no less than 3 nM in [4] and no more than 4 nM in [5].

B4: Pr300#20 human IgG1 antibody (antibody, V domains shown)
VH: QVQLVQSGAEVRKPGASVKVSCKASGGTFSSYAISWVRQAPGQGLEWMGRIIPILGIANYAQKFQGRVTITADKSTSTAYMELSSLRSEDTAVYYCARHYGQWWDYWGQGTLVTVSS
VL: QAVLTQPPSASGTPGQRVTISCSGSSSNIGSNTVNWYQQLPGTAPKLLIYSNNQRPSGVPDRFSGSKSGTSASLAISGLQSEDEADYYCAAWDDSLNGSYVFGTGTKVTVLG
notes: Full-length human IgG1 with matching human lambda constant region; Used APC-conjugated in flow cytometry; also called Pr#20; PR#20
On to B4, for which, in experiment [6], the binding result is “no binding”. Besides, the “Median: APC-A” value came out at 18900 in experiment [7]; 72800 in [8]; 6240 in [9]; 28600 in experiment [10]; 41500 in experiment [11]; 10900 in experiment [12]. Moreover, the “Median: APC-A” value in experiment [13] was found to be 730.

B5: EXT009-17 phage (scFv phage clone) (scFv)
scFv: QSVLTQPPSVSGAPGQRVTISCTGSSSNIGAGFDVHWYQQLPGTAPKLLIFGNSNRPSGVPDRFSGSKSGTSASLAITGLQAEDEADYYCQSYDSSLSGYVFGSGTKVTVLGSRGGGGSGGGGSGGGGSLEMAEVQLVESGAEVKKPGSSVKVSCKASGGTFSSYAISWVRQAPGQGLEWMGRIIPIFGIANYAQKFQGRVTITADKSTSTAYMELSSLRSEDTAVYYCARSMWYMDSWGQGTLVTVSS
B5: the binding result in experiment [14] is given as “no binding”. Further, the MFI came to 19400 in experiment [15]; 82 in experiment [16]; 95.5 in experiment [17]; 7510 in experiment [18]; 85.1 in experiment [19]; 23800 in experiment [20]. For the same molecule, the MFI in [21] was determined as 82.1; in experiment [22], 96.1; in [23] it was 79.7; in [24], 146; in experiment [25], 85.7; in experiment [26], 82.8.

B6: EXT009-8 phage (scFv phage clone) (scFv)
scFv: QSVVTQPPAVSGALGQRVTISCTGTTSNIGAGFDVHWYQQRPGAAPKLLISGNTHRPSGVPDRISGSKSGTLASLAITGLQAEDEADYYCQSYDRSLSTILFGGGTKLTVLGSRGGGGSGGGGSGGGGSLEMAQVQLVQSGAEVKKPGSSVKVSCKASGGTFSSHPISWVRQAPGQGLEWMGRIIPMLDIPNNAQKFQGRVTITADKSTDTAYLELSSLTSEDTAVYYCARGLYYYDYWGQGTLVTVSS
notes: also called EXT009-08
As for B6, the binding result in experiment [14] was “no binding”. Besides, the MFI was found to be 1360 in [15]; 83.3 in [16]; 88.2 in experiment [17]; 87.6 in experiment [18]; 138 in [19]; 3830 in experiment [20]. Besides, the MFI in experiment [21] was determined as 83.1; in [22], 82.5; in experiment [23], 83.2; in experiment [24] it was 83.2; in [25], 86.3; in experiment [26] it was 85.9.

B7: Pr435#37 antibody (antibody, V domains shown)
VH: EVQLVESGAEVKKPGASVKVSCKASGYTFTSYYMHWVRQAPGQGLEWMGIINPSGGSTSYAQKFQGRVTMTRDTSTSTVYMELSSLRSEDTAVYYCAAGSYYSLDIWGQGTMVTVSS
VL: LLPVLTQPHSVSESPGKTVTISCTGSSGSIASNFVQWYQQRPGSAPTTVIYDDNQRPSGVPDRFSASIDRSSNSASLTISGLKTDDEADYYCQSYDGSNVIFGGGTKLTVLG
notes: also called Pr4350#37
With B7, the binding result in experiment [2] is “binds”.
